According to patent US20200223906A1 (Adimab, published 2020):
Changes are numbered by the printed parent chain.

B1: ADI-18965 (antibody, V domains shown)
VH: QVQLVQSGAEVKKPGASVKISCKASGYPFSSYPMHWVRQAPGQRLEWMGWINVDNENTKYSWKFRGRVTITRDTSASTVYMELSSLISEDTAVYYCGRDWDGAIRVLDYWGQGTLVTVSS
VL: DIVMTQTPDSLAVSLGERATITCKSSQSVLFSSDNKNYLAWYQQKPGQPPKLLIYWASIRESGVPDRFGGSGSGTHFTLTITSVQAADVAVYYCQQYYGNFPTFGQGTRLEIK
B2: ADI-18962 (antibody, V domains shown)
VH: QVQLVQSGGGLVKPEGSLRLSCAASGFTFSSYSMNWVRQAPGKGLEWVSSISSSSSYIYYADSVKGRFTISRDNAKNSLYLQMNSLRAEDTAVYYCARVSTELGYYYMDVWGKGTTVTVSS
VL: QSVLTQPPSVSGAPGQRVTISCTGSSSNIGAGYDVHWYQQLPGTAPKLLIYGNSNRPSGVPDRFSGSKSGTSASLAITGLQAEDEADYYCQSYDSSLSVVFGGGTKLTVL
notes: full-length IgG from yeast
B3: ADI-18884 (antibody, V domains shown)
VH: EVQLVESGAEMKKPGASVKVSCKASGYTFTNYAIHWVRQAPGQSLEWMGWINAGNGNTQYSQKFQGRVTFTRDTSASTVYMDLSSLRSEDTAVYYCARGQIVVIPRANFWFDPWGQGTLVTVSS
VL: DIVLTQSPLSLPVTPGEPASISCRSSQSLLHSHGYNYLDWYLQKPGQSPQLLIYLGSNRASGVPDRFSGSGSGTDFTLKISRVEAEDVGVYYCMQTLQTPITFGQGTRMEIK
notes: full-length IgG from yeast; also called Antibody Number 240; Ab # 240
B4: ADI-18894 (antibody, V domains shown)
VH: QVQLVQSGGGVVQPGRSLKHSCAASGFTFNNYAIHWVRQAPGKGLEWVAAISYDGSNEYYSNSVKGRFTISRDNSKYTLYLQMNSLRPEDTAVYYCARGASYYYVSSDLGYWGQGTLVTVSS
VL: QPVLTQPPSVSGAPGQRVTISCTGSSSNIGSGYDVHWYQQLPGTAPKVVIYGNINRPSGVPERFSGSKSGTSASLAITGLQAEDEADYYCQSYDSLSASWVFGGGTKLTVL
notes: full-length IgG from yeast; also called Antibody Number 249; Ab # 249
B5: ADI-18959 (antibody, V domains shown)
VH: QVQLVQSGAEVKKPGASVRVSCKVYGHTLSELSMHWVRQGPEGGLEWMGAFDHEDGEGIYPQKFQGRITMTADISTDTAHMELRSLRSEDTAVYYCATPTPVGATDFWGQGTLVTVSS
VL: DIRVTQSPSSLSASVGDRVTITCRASQSISSYLNWYQQKPGKAPKLLIYAASTLQRGGPSRFSGSGSGTDFTLSISSLQPEDFATYYCQQTYIIPYTFGQGTKLEIK
notes: full-length IgG from yeast; also called Antibody Number 310; Ab # 310
B6: ADI-18957 (antibody, V domains shown)
VH: EVQLLESGGGLVKPGESLRLSCAASGFTLSGYYMNWVRQAPGRGLEWVSSISGGSNYINYADSVKGRFTISRDNAKNSLYLQMNSLRVEDTAVYYCARVHVDLVTTIFGVDFDFWGQGTLVTVSS
VL: QSVLTQPPSVSGAPGQRVTISCTGSSSNIGAGYDVHWYQQLPGTAPKLLIYGNTNRPAGVPDRFSGSKSGSSASLAITGLQAEDEADYYCQSYDSSLSGAIFGGGTKLTVL
notes: full-length IgG from yeast
B7: ADI-18956 (antibody, V domains shown)
VH: QVQLVQSGAELKKPGSSVKVSCKASADTFKSYAINWVRQAPGQGLEWMGEFIPIFGVSPSAQKFQGRVTITADRSTSTAYMELSSLKSDDSAIYYCATRLYTLGSPFDNWGQGTTVTVSS
VL: QPVLTQPRSVSGSPGQSVTISCTGTSSDVGDYDYVSWYQHLPGEVPKLIVYNVIKRPSGVPDRFSGSKSGNTASLTISGLQAEDEADYYCCSYAGRYIYVFGSGTKLTVL
notes: full-length IgG from yeast
B8: ADI-18901 (antibody, V domains shown)
VH: EVQLVESGAEVKRPGASVKISCKASEYAFTAHYLHWVRQAPDQGLEWMGWISPKSGGTNYAQKFHGRVSMTSDTSISTVYMELSSLTSDDTAVYYCARSSLVGASPNFDFWGQGTLVTVSS
VL: QSVLTQPPSVSAAPGQRVTISCSGSSSNIGNNYVSWYQQLPGTTPKVLIYDNNQRPSGIPDRFSGSKSGTSATLAISGLQTGDEAVYYCGTWDASLSAAMVFGGGTKLTVL
B9: ADI-18940 (antibody, V domains shown)
VH: QVQLVQSGAGVKKPGASVRVSCTASGYTFTDYFINWVRQAPGGGLEWMGWVNPLSGATRYAQNFAGRVTMTTDTSITTGYLDLRNLRLDDTAVYFCASQSSPYTPGAMDVWGQGTTVTVSS
VL: DIVMTQSPSSLSASVGDRVSITCRTSQTISGYISWYQKKPGKAPKLLIYAASNMYSGVPSRFSGSESGTDFTLTITSLQPEDFATYFCQLNSGALFTFGPGTKVDIK
notes: full-length IgG from yeast
B10: ADI-18907 (antibody, V domains shown)
VH: QVQLVQSGPEVKKPGSSVKVSCKASGGTFSSYAITWVRQAPGQGLEWMGGIIPSFDRVDYSRNFKGRVTFTADKSANTAYMELTNVRSDDTAVYYCARGCCGAVAGFQHWGQGTGVTVSS
VL: DIVLTQTPATLSLSPGETATLSCRASQSVTTYLAWYQQKPGQAPRLLIYDASNRATGVPTRFSGSGSGTDFTLTISSLEPEDYAIYYCQQRTTGVTFGGGTKVEIK
notes: full-length IgG from yeast; also called Antibody Number 262; Ab # 262
B11: ADI-18905 (antibody, V domains shown)
VH: EVQLVESGPTLVKPSETLSLTCVVSGGSVYRSSNYWAWIRQPPGKGLEWIGSVYHSGNPYSNPSLQSRVSVSIDTSKNQFSLKLYSVTAADSAIYYCACKRADADDVDYVAGLTGFPWYFDVWGRGTLVTVSS
VL: EIVLTQSPSTLSASVGDRVTITCRASQSISSWLAWYQQKPGKTPKLLIYKASTLESGVPSRFSGSGSGTEFTLTISSLQPDDFATYYCQQYHVYFPLTFGGGTKVEIK
B12: ADI-18929 (antibody, V domains shown)
VH: QVQLVQSGGGLVKPGGSLRLSCAASGFTFNDYYMNWIRQAPGKGLEWVSYISSSGETKYYADSVKGRFTISRDNAKNSLYLEMNSLRVEDTAVYYCARDAVIVVGPVAVHYQYYADVWGKGTTVTVSS
VL: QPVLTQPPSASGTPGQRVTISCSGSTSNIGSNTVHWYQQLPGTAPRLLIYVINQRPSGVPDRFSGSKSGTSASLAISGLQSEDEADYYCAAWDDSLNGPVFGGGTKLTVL
B13: ADI-18943 (antibody, V domains shown)
VH: QVQLQESGPGLVKPSETLSLTCSVSGASVTSREYYWGWIRQAPGKGLQWIASIHHSPFQSDGNPSLTSRVSSSVVTSKNQLALRLSSVTAADTAVYYCAGAFWEVWTGLYSPPFDFWGQGILVTVSS
VL: EIVMTQSPGTLSLSPGERATLSCWASQTVSSGYLAWYQQKPGQAPRLLIYGASTRATDIPDRFSGSGSGTGFTLTISRLEPEDLAVYYCQQYSSSPLTFGGGTKVEIK
notes: full-length IgG from yeast
B14: ADI-18925 (antibody, V domains shown)
VH: QVQLVESGGGVVQPGRSLRLSCAASGFPFSLYAMHWVRQAPGKGLEWVAFISYDGSNKYYADSVKGRFTISRDSSKNTLYLQMDSLTPEDTAVYYCAKPIVGPTTGYFDYWGPGTLVTVSS
VL: EIVLTQSPATLSLSPGERATLSCRASQSVSSYLAWYQQKPGQAPRLLIYDASNRATGIPARFSGSGSGTDFTLTISSLEPEDFAVYYCQQRSNWYTFGQGTKVEIK
B15: ADI-18910 (antibody, V domains shown)
VH: QVQLVQSGAEVKKPGSSVKVSCKASGGTFSSYAISWVRQAPGQGLEWMGGIIPMFDIVDYAQKFQGRVTITADESTNTAYMELTSLRSEDTAVYYCARTAALGPPGTIVGYMDVWGKGTTVTVSS
VL: DIVMTQSPLSLPVTPGEPASISCRSSQSLLQSNGYNYLDWYLQKPGQAPQLLIYLGSNRASGVPDKFSGSGSGTDFTLKISRVEAEDVGVYYCMQTLQTPWTFGQGTKVEIK
notes: full-length IgG from yeast; also called Antibody Number 265; Ab # 265
B16: ADI-18944 (antibody, V domains shown)
VH: QVQLVQSGAEVKKPGASVKVSCKTSGYTFSNYGISWLRQAPGQGLEWMAWISPYNGNTKSAQRFQGRVIMTTDTSTRTAHMEVKSLRTDDTATYYCARDPAVDAIPMLDYWGQGTTVTVSS
VL: DIQVTQSPLSLPVTLGQPASISCRSSQSLVYTDGNTYLSWFQQRPGQSPRRLIYRVSHRDSGVPDRFTGSGSGTDFTLIIRRVEAEDVGVYYCMQGTHWPLTFGGGTKVEIK
notes: full-length IgG from yeast
B17: ADI-18972 (antibody, V domains shown)
VH: B16 VH with T116L
VL: B16 VL with V4M, V109L
notes: full-length IgG from yeast; also called Antibody Number 320; Ab # 320
B18: ADI-18949 (antibody, V domains shown)
VH: B16 VH with T116M
VL: B16 VL with D1E, Q3V, V4L
notes: full-length IgG from yeast
B19: ADI-18931 (antibody, V domains shown)
VH: EVQLVESGGGLQKPGRSLRLSCSASGFTFGDYAMSWFRQAPGKGLEWVGFIRSKAYVGTAEYAASVKGRFTISRDDSKSIAYLHMNSLKTEDTAVYYCTRDDILTGFYDRSYYYGIHVWGQGTTVTVSS
VL: EIVMTQSPVTLSVSPGERATLSCRASQSVNSNLAWYQKKPGQAPRLLIYSASTRATGVPARFSGSGSGTEFTLTVSSLQSEDFAVYYCQQYDNWPPYTFGQGTKVEIK
notes: full-length IgG from yeast; also called Antibody Number 285; Ab # 285

Columns and labels:
[1] = biological target: RSV F protein of subtype B (18537) on recombinant mKate-RSV virus (Respiratory syncytial virus subtype B …, UniProt P13843 26-574); test: cell-based or functional assay
[2] = biological target: RSV F protein of subtype A (strain A2) on recombinant mKate-RSV virus (Respiratory syncytial virus subtype A …, UniProt P03420 26-574); test: cell-based or functional assay
[3] = biological target: T1, RSV F subtype B, furin-cleaved ectodomain stabilized in the prefusion conformation (DS-Cav1) (Respiratory syncytial virus subtype B); test: BLI, IgG on AHQ sensor, 100 nM antigen
T1 construct: extracellular domain; Trimeric soluble antigen; also called Prefusion subtype B

[4] = biological target: T2, RSV F subtype A, furin-cleaved ectodomain stabilized in the prefusion conformation (DS-Cav1) (Respiratory syncytial virus subtype A, UniProt P03420 26-524); test: BLI, IgG on AHQ sensor, 100 nM antigen
T2 construct: extracellular domain; Trimeric soluble antigen; also called Prefusion subtype A

| Binder | Neut IC50 (µg/ml) subtype B [1] [µg/mL] | Neut IC50 (µg/ml) subtype A [2] [µg/mL] | Kd [3] [nM] | Kd [4] [nM] |
| --- | --- | --- | --- | --- |
| B1 | 6.89 | 3.02 | – | – |
| B2 | > 10 | 4.44 | 22.8 | – |
| B3 | 0.239 | 0.073 | 0.204 | – |
| B4 | 0.123 | 0.345 | 0.327 | – |
| B5 | 2.26 | 7.21 | – | 4.68 |
| B6 | 6.08 | 1.34 | 0.324 | – |
| B7 | > 10 | > 10 | 0.224 | – |
| B8 | 5.76 | 5.65 | – | – |
| B9 | 0.063 | 0.023 | 1.56 | – |
| B10 | > 10 | 3.3 | 0.204 | – |
| B11 | 3.68 | 0.685 | – | – |
| B12 | 0.369 | 0.261 | – | – |
| B13 | 0.043 | 0.027 | 0.725 | – |
| B14 | > 10 | > 10 | – | – |
| B15 | 0.767 | > 10 | 10.6 | – |
| B16 | 0.074 | 0.026 | 0.337 | – |
| B17 | 0.107 | 0.016 | 0.368 | – |
| B18 | 0.076 | 0.04 | 0.308 | – |
| B19 | > 10 | > 10 | 0.488 | – |
